Test results: patent publication US20090291081A1 (AbbVie / Abbott, published 2009)
Changes are numbered by the printed parent chain.

B1: ABT2-68 (other)
VL: DIQMTQSPSSLSASVGDRVTITCRASQNIWYHLNWYQQKPGKAPKLLIYLGSRLQSGVPSRFSGSGSGTDFTLTISSLQPEDFATYYCQQIHHDPFTFGQGTKVEIKR
B2: ABT2-65-34 (other)
VH: EVQLLESGGGLVQPGGSLRLSCAASGFTFEDYQMGWVRQAPGKGLEWVSSISAMGNRTYYADSVKGRFTISRDDSKNTLYLQMNSLRAEDTAVYYCAQNLVRTRSKRWMFDYWGQGTLVTVSS
B3: ABT2-65-510 (other)
VH: B2 VH with A23V, K76E, T103L, R104G, S105R, K106S
B4: ABT2-65-504 (other)
VH: B2 VH with A23V, W47R, I51V, Y59H, E89G, T103L, R104G, S105R, K106S
B5: ABT2-65-160 (other)
VH: B2 VH with A23V, N56P, T103L, R104G, S105R, K106S
B6: ABT2-65-163 (other)
VH: B2 VH with A23V, N56G, T103L, R104G, S105R, K106S
B7: ABT2-65-502 (other)
VH: B2 VH with A23V, I51V, D74G, T103L, R104G, S105R, K106S
B8: ABT2-65-512 (other)
VH: B2 VH with A23V, R38H, T103L, R104G, S105R, K106S
B9: ABT2-65-35 (other)
VH: B2 VH with A23V, T103L, S105R, K106S
B10: ABT2-108-533X (other)
VH: EVQLLESGGGLVQPGGSLRLSCAASGFTFADEGMMWVRQAPGKGLEWVSRIGQDGKNTYYADSVKGRFTISRDNSKNTLYLQMNSLRAEDTAVYYCAKYTGRILGHHLFDYWGQGTLVTVSS
B11: ABT2-108-538X (other)
VH: B10 VH with G52T, Q53Y, D54S
B12: ABT2-108-537X (other)
VH: B10 VH with A61R, D62M, S63D
B13: ABT2-64 (other)
VH: EVQLLESGGGLVQPGGSLRLSCAASGFTFDDYGMGWVRQAPGKGLEWVSLIYPFGGGTYYADSVKGRFTISRDNSKNTLYLQMNSLRAEDTAVYYCAKVTQTGKFDYWGQGTLVTVSS
B14: ABT2-69 (other)
VH: EVQLLESGGGLVQPGGSLRLSCAASGFTFTGYDMAWVRQAPGKGLEWVSVIYAYGESTYYADSVKGRFTISRDNSKNTLYLQMNSLRAEDTAVYYCAKVYSNQFDYWGQGTLVTVSS
B15: ABT2-72 (other)
VH: B14 VH with T30R, G31A, A35G, Y54W, E56T, V99T, Y100S, N102D, Q103G
B16: ABT2-66 (other)
VH: EVQLLESGGGLVQPGGSLRLSCAASGFTFSHYTMAWVRQAPGKGLEWVSTIGSSGNSTYYADSVKGRFTISRDNSKNTLYLQMNSLRAEDTAVYYCAQMRGPYYTFDYRGQGTLVTVSS
B17: ABT2-67 (other)
VL: DIQMTQSPSSLSASVGDRVTITCRASQYIGEHLAWYQQKPGKAPKLLIYHNSALQSGVPSRFSGSGSGTDFTLTISSLQPEDFATYYCQQHAFLPNTFGQGTKVEIKR
B18: ABT2-76 (other)
VL: B17 VL with Y28S, G30D, E31R, H32W, H50R, N51G, A53I, H91V, L94W, N96P

Biological target: human IL-1β (human, UniProt P01584 117-269)
Assay: cell-based or functional assay

ND50	Binder
> 10000 nM	B1
20 nM	B2
1 nM	B3
4 nM	B4
2 nM	B5
2 nM	B6
2 nM	B7
3 nM	B8
4 nM	B9
5 nM	B10
5 nM	B11
206 nM	B12
> 10000 nM	B13
> 10000 nM	B14
> 10000 nM	B15
> 10000 nM	B16
> 10000 nM	B17
500 nM	B18
